According to IntAct's records for PubMed 19013157:

B1: Trimethylamine-N-oxide reductase 1 (Escherichia coli (strain K12)), P33225 (parent)
chain: MNNNDLFQASRRRFLAQLGGLTVAGMLGPSLLTPRRATAAQAATDAVISKEGILTGSHWGAIRATVKDGRFVAAKPFELDKYPSKMIAGLPDHVHNAARIRYPMVRVDWLRKRHLSDTSQRGDNRFVRVSWDEALDMFYEELERVQKTHGPSALLTASGWQSTGMFHNASGMLAKAIALHGNSVGTGGDYSTGAAQVILPRVVGSMEVYEQQTSWPLVLQNSKTIVLWGSDLLKNQQANWWCPDHDVYEYYAQLKAKVAAGEIEVISIDPVVTSTHEYLGREHVKHIAVNPQTDVPLQLALAHTLYSENLYDKNFLANYCVGFEQFLPYLLGEKDGQPKDAAWAEKLTGIDAETIRGLARQMAANRTQIIAGWCVQRMQHGEQWAWMIVVLAAMLGQIGLPGGGFGFGWHYNGAGTPGRKGVILSGFSGSTSIPPVHDNSDYKGYSSTIPIARFIDAILEPGKVINWNGKSVKLPPLKMCIFAGTNPFHRHQQINRIIEGLRKLETVIAIDNQWTSTCRFADIVLPATTQFERNDLDQYGNHSNRGIIAMKQVVPPQFEARNDFDIFRELCRRFNREEAFTEGLDEMGWLKRIWQEGVQQGKGRGVHLPAFDDFWNNKEYVEFDHPQMFVRHQAFREDPDLEPLGTPSGLIEIYSKTIADMNYDDCQGHPMWFEKIERSHGGPGSQKYPLHLQSVHPDFRLHSQLCESETLRQQYTVAGKEPVFINPQDASARGIRNGDVVRVFNARGQVLAGAVVSDRYAPGVARIHEGAWYDPDKGGEPGALCKYGNPNVLTIDIGTSQLAQATSAHTTLVEIEKYNGTVEQVTAFNGPVEMVAQCEYVPASQVKS
partner: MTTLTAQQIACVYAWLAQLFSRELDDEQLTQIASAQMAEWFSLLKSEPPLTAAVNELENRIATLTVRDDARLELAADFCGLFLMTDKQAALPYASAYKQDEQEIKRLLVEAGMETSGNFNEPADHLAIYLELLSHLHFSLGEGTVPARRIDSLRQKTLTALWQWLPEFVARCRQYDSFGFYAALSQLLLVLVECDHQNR
B2: Chaperone protein TorD (Escherichia coli (strain K12)), P36662 (parent)
chain: B1 partner

Variants of: B1
Conditions: with tord_ecoli torD

Row | effect of a mutation on the interaction | Variant
1 | increasing interaction | T22Q

Variants of: B1
Conditions: with tord_ecoli torD
Remark: another data set of the same source

Row | effect of a mutation on the interaction | Variant
2 | disrupting interaction | L32Q

Variants of: B1
Conditions: with tord_ecoli torD
Remark: another data set of the same source

Row | effect of a mutation on the interaction | Variant
3 | decreasing interaction | G28Q

Variants of: B1
Conditions: with tord_ecoli torD
Remark: another data set of the same source

Row | effect of a mutation on the interaction | Variant
4 | decreasing interaction | V23Q

Variants of: B1
Conditions: with tord_ecoli torD
Remark: another data set of the same source

Row | effect of a mutation on the interaction | Variant
5 | disrupting interaction | L27Q

Variants of: B1
Conditions: with tord_ecoli torD
Remark: another data set of the same source

Row | effect of a mutation on the interaction | Variant
6 | decreasing interaction | G19Q

Variants of: B1
Conditions: with tord_ecoli torD
Remark: another data set of the same source

Row | effect of a mutation on the interaction | Variant
7 | disrupting interaction | L31Q

Variants of: B1
Conditions: with tord_ecoli torD
Remark: another data set of the same source

Row | effect of a mutation on the interaction | Variant
8 | decreasing interaction | L31Q

Variants of: B2
Conditions: with tora_ecoli torA

Row | effect of a mutation on the interaction | Variant
9 | increasing interaction | MTTLTALQIACVYAWLAQLFSRELDDEQLTQIASAQMAEWFSLLKSEPPLTAAVNELENRIATLTVRDDARLELAADFCGLFLMTDKQAALPYASAYKQDEQEIKRLLVEAGMETSGNFNEPADHLAIYLELLSHLHFSLGEGTVPARRIDSLRQKTLTALWQWLPEFVARCRQYDSFGFYAALSQLLLVLVECDHQNR [Q7L]
10 | increasing interaction | MTTLTAQQIACVYAWLAQLFSRELDDEQLTQIASAQMAEWFSLLKSEPPLTAAVNELENRIATLTVRDDARLELAADFCGLFLMTDKQAALPYASAYKQDEQEIKRLLVEAGMETSGNFNEPADHLAIYLELLSHLHFSLGEGTVPARRIDSLRQKTLTALWQWLPEFVARCRQYDSFGFYAALSQLLQVLVECDHQNR [L189Q]
11 | increasing interaction | MTTLTAQQIACVYAWLAQLFSRELDDEQLTQIASAQMAEWFSLLKSEPPLTAAVNELENRIATLTVRDDARLELAADFCGLFLMTDKQAALPYASAYKQDEQEIKRLLVEAGMETSGNFNEPADHLAIYLELLSHLHFSLGEGTVPARRIDSLRQKTLTALWQWLPEFVARCRQYDSFGLYAALSQLLLVLVECDHQNR [F180L]

Variants of: B2
Conditions: with tora_ecoli torA
Remark: another data set of the same source

Row | effect of a mutation on the interaction | Variant
12 | increasing interaction | MTTLTAQQIACVYAWLAQLFSRELDDEQLTQIASAQMAEWFSLLKSEPPLTAAVNELENRIATLTVRDDARLELAADFCGLFLMTDKQAALPYASAYKQDEQEIKRLLVEAGMETSGNFNEPADHLAIYLELLSHLHFSLGEGTVPARRIDSLRQKTLTALWQWLPEFVARCRQYDSFGFYAALSLLLLVLVECDHQNR [Q186L]

Variants of: B2
Conditions: with tora_ecoli torA
Remark: another data set of the same source

Row | effect of a mutation on the interaction | Variant
13 | decreasing interaction | MTTLTAQQIACVYAWLAQLFSRELDDEQLTQIASAQMAEWFSLLKSEPPLTAAVNELENRIATLTVRDDARLELAADFCGLFLMTDKQAALPYASAYKQDEQEIKRLLVEAGMETSGNFNEPADHLAIYLELLSHLHFSLGEGTVPARRIDSLRQKTLTALWQWLPEFVARCRQYDSFGFYAALSQLLQVLVECDHQNR [L189Q]

Variants of: B2
Conditions: with tora_ecoli torA
Remark: another data set of the same source

Row | effect of a mutation on the interaction | Variant
14 | decreasing interaction | MTTLTAQQIACVYAWLAQLFSRELDDEQLTQIASAQMAEWFSLLKSEPPLTAAVNELENRIATLTVRDDARLELAADFCGLFLMTDKQAALPYASAYKQDEQEIKRLLVEAGMETSGNFNEPADHLAIYLELLSHLHFSLGEGTVPARRIDSLRQKTLTALWQWLPEFVARCRQYDSFGLYAALSQLLLVLVECDHQNR [F180L]
